Measured values as given in publication doi:10.1101/2021.03.01.433494 (bioRxiv, 2021).

B1: Ab32 (human monoclonal anti-M protein IgG) (antibody, V domains shown)
VH: EVQLVESGGGLVRPGGSLRLSCVASGFMFNEYYMSWIRQAPGKGLEWISFISNAGTYTNYAESVKGRFTISRDNAKDSLYLEMNSLRGEDTAVYYCARQGFDTRGEDAFEIWGQGTMVTVSS
VL: EIVLTQSPATLSLSPGERATLSCRASQPLSGYLAWYQQKPGQAPRLLIYNASKRATGIPARFTGSGSGTDFTLTISSLESEDFAVYYCQQRSGWPSIFTFGPGTKVDIK
B2: Ab49 (human monoclonal anti-M protein IgG) (antibody, V domains shown)
VH: EVQLVESGGGLVQPGGSLRLSCAASGFTVSINYMSWVRQAPGKGLQWVSVIYSGGSTYYADSVKGRFTISRDNSKNTLYLQMNSLRAEDTAMYYCVRDSRFWGIFDYWGQGTLVTVSS
VL: EIVLTQSPATLSLSPGERATLSCRASQSVSSYLAWYQRKPGQAPRLLIYDASNRATGIPARFSGSGSGTDFTLTISSLEPEDFAVYYCQQRSNWPPTFGQGTKVEIK
B3: Ab49 single Fab (IgdE-cleaved Ab49) (Fab, V domains shown)
VH: B2 VH
VL: B2 VL

How the values were obtained:
[1] = target: T1, M1 protein on the surface of Streptococcus pyogenes strain SF370 (Streptococcus pyogenes SF370 (emm1), UniProt Q99XV0, strain); assay: far-Western, overlay or dot blot
[2] = target: T1, M1 protein on the surface of …; assay: flow cytometry on cells

Binder | binding result [1] | binding result [2]
B1 | binds | –
B2 | – | binds
B3 | – | binds
